In the supplement of paper PMC10567573 one finds protein stability index data, which are given here for 37 sequences.

± gives the standard deviation.

This series in a line: protein stability index of a GFP-peptide fusion (GPS, HEK-293T) (PSI 1-6); higher = more stable. The following applies: c terminus: a fixed tail appended.
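Further: 24-mer peptide tiles fused after GFP, lentivirally expressed, FACS-sorted into six equal bins by GFP/DsRed ratio, decoded by Illumina sequencing, PSI is the read-weighted mean bin number.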

For LIHPELNEGLMKWENRHEGVFKFL [ELF3], the protein stability index came out at 2.36 ± 0.15 (treatment: DMSO) and 2.48 ± 0.19 (treatment: MLN4924 1 uM, 8 h). For LLQIIDTTLLKCYLHTNVALVAPL [VPS39], the protein stability index is, setting by setting: (treatment: DMSO) 3.13 ± 0.49; (treatment: MLN4924 1 uM, 8 h) 3.38 ± 0.21. For SEIGTSDQIVPEYQEDSDISSFFC [TRIB1] the same measures were 4.39 ± 0.47 and 4.55 ± 0.36.

As for HFFALKVMSIPDVIRLKQEQHVHN [PRKX], the protein stability index reads like this: (treatment: DMSO) 2.25 ± 0.28; (treatment: MLN4924 1 uM, 8 h) 2.17 ± 0.1. For AELNKEVSTNTAMIQTSKTEITEL [KRT13] the same measures were 5.26 ± 0.14 and 5.18 ± 0.079. On the same counts, the results for DETTRSDISERPSVDDIESETGST [C2CD2L] are 5.68 ± 0.1 and 5.6 ± 0.32. On the same counts, the results for VDTLNVKDIAPEKQLLNSAVIAQQ [DLC1] are 4.53 ± 0.36 and 4.55 ± 0.24. As for ANAHTYHINSISVNSDYETYMSAD [PPP2R2B], the protein stability index was found to be 3.81 ± 0.24 (treatment: DMSO) and 3.8 ± 0.22 (treatment: MLN4924 1 uM, 8 h). With ASGLTGFIGLEVVAQLFNCMVGLL [ATL3], the protein stability index is, setting by setting: (treatment: DMSO) 2.26 ± 0.16; (treatment: MLN4924 1 uM, 8 h) 2.15 ± 0.1.

For GTENGAIDAVPVDENLFTGEDLDE [ZC3H15], the protein stability index runs as follows: (treatment: DMSO) 5.7 ± 0.3; (treatment: MLN4924 1 uM, 8 h) 5.52 ± 0.44. For GCGADSKKKRPPQPPEESQPPQSQ [PLK2], the protein stability index reads like this: (treatment: DMSO) 5.52 ± 0.35; (treatment: MLN4924 1 uM, 8 h) 5.53 ± 0.18. Take DWVMWAVNEFSLKGVDFQKFCMNG [ETS1]: the protein stability index worked out at 3.16 ± 0.39 (treatment: DMSO) and 3.05 ± 0.47 (treatment: MLN4924 1 uM, 8 h). In the case of DCSFPGLPRHQDQPHHQPPNRAGA [TRAF3IP2], the protein stability index reads like this: (treatment: DMSO) 4.91 ± 0.062; (treatment: MLN4924 1 uM, 8 h) 5.03 ± 0.14. ALVFGVNTFIALALQTLLTLIVVD [SLC19A2]: the protein stability index by setting is: (treatment: DMSO) 3.33 ± 0.55; (treatment: MLN4924 1 uM, 8 h) 3.37 ± 0.58.

TQTWCTQSWNNQAWNSPFYNCGEE [NANOGP8]: the protein stability index (treatment: DMSO) was found to be 3.07 ± 0.25 and the protein stability index (treatment: MLN4924 1 uM, 8 h) was 3.2 ± 0.12.

On to KESSPSGSKSQRYSGAYGASVSDE [CHCHD3], for which the protein stability index was 5.31 ± 0.5 (treatment: DMSO) and 4.99 ± 0.12 (treatment: MLN4924 1 uM, 8 h).

In the case of RTYGEPESAGPSRAVRQSVTSFPD [EMD], the protein stability index by setting is: (treatment: DMSO) 4.92 ± 0.24; (treatment: MLN4924 1 uM, 8 h) 4.94 ± 0.14. Consider ELVLCVLVSIRNNRNLQKFSLFGD [FBXO33], for which the protein stability index (treatment: DMSO) is 2.87 ± 0.54 and the protein stability index (treatment: MLN4924 1 uM, 8 h) turned out to be 2.86 ± 0.34.

In the case of FHIMKRKFTNKEWETIRSFKDEWT [AASDHPPT], the protein stability index (treatment: MLN4924 1 uM, 8 h) was 2.09 ± 0.16. Sequence DDDAEEEGPKRELGVRRPGGAGKE [TCF25] had a protein stability index (treatment: DMSO) of 5.58 ± 0.2 and a protein stability index (treatment: MLN4924 1 uM, 8 h) of 5.66 ± 0.15. In the case of FVQREEQLQFLIRYHRFISFALYL [CDS1], the protein stability index runs as follows: (treatment: DMSO) 2.4 ± 0.68; (treatment: MLN4924 1 uM, 8 h) 2.68 ± 0.9.

Take KILEVVGRYSVHNAGISFSVKKQG [MLH1]: the protein stability index was 2.19 ± 0.93 (treatment: DMSO) and 1.91 ± 0.51 (treatment: MLN4924 1 uM, 8 h). As to LKEDGMETVPWFPKKISDLDHCAN [TPH1], the protein stability index by setting is: (treatment: DMSO) 4.11 ± 0.25; (treatment: MLN4924 1 uM, 8 h) 4.09 ± 0.21. Take PQEESEESNVSMASLGEKRDHHST [CHGB]: the protein stability index reads like this: (treatment: DMSO) 5.59 ± 0.37; (treatment: MLN4924 1 uM, 8 h) 5.58 ± 0.16. With CLEGSINEHSAHCPHTPEFSVTGG [RPAIN], the protein stability index was 4.2 ± 0.41 (treatment: DMSO) and 4.07 ± 0.21 (treatment: MLN4924 1 uM, 8 h). Regarding GNGVHVCNVKYKRWALLSCRGKKP [KLHDC10], the protein stability index by setting is: (treatment: DMSO) 2.73 ± 0.35; (treatment: MLN4924 1 uM, 8 h) 2.94 ± 0.27. Regarding TIDMGPQLKVVERTRTATMLCAAS [PTPRD], the protein stability index reads like this: (treatment: DMSO) 3.18 ± 0.23; (treatment: MLN4924 1 uM, 8 h) 3.49 ± 0.21. For DPRVQDFLQRCLESPFSRKLDLWS [NET1] the same measures were 2.34 ± 0.25 and 2.27 ± 0.25. In the case of DQFIPIWTVANMEEIKKLTTDPDL [LARP4], the protein stability index reads like this: (treatment: DMSO) 3.97 ± 0.12; (treatment: MLN4924 1 uM, 8 h) 3.82 ± 0.42. For VWVTHEEMETLETSTKTDSEEGSW [PPFIA4] the same measures were 4.19 ± 0.29 and 4.68 ± 0.22. For the sequence LREERGHPLHPRHRKAVHLRTRGR [C6orf223], the protein stability index worked out at 4.08 ± 0.23 (treatment: DMSO) and 4.06 ± 0.36 (treatment: MLN4924 1 uM, 8 h). On the same counts, the results for RSLEELTRLAFELFAEEQAEGPNR [LPCAT4] are 3.32 ± 0.52 and 3.53 ± 0.18. For the sequence PCSEFMEPSSDPSLLGEPCAGPGF [SPAG8], the protein stability index reads like this: (treatment: DMSO) 4.15 ± 0.25; (treatment: MLN4924 1 uM, 8 h) 4.44 ± 0.28.

Regarding EKETQIIASIGRHRYIAYMANQEA [IQUB], the protein stability index worked out at 3.07 ± 0.32 (treatment: DMSO) and 2.88 ± 0.46 (treatment: MLN4924 1 uM, 8 h).

Take GPVAGLDDSGGPTPSSYAPSHPPR [ZBTB22]: the protein stability index was found to be 4.92 ± 0.15 (treatment: DMSO) and 4.79 ± 0.13 (treatment: MLN4924 1 uM, 8 h). For NFGLRLVVQRCSGQKWMIRNWIKH [GALNT9] the same measures were 2.67 ± 0.32 and 2.06 ± 0.59. For LKKLAEENPDLQEAYIAKQKRLKS [GDAP1], the protein stability index stood at 4.38 ± 0.22 (treatment: DMSO) and 4.6 ± 0.28 (treatment: MLN4924 1 uM, 8 h).
